Patent US9126993B2, “Glucosylceramide synthase inhibitors” (GENZYME CORPORATION, priority 2011, dated 2015)
“Also recorded” adds a separate entry of the source.

Legend:
Fabry mice [1] = assay: Substrate reduction therapy in Fabry mouse model: Gb3 and lyso-Gb3 levels; type: in vivo; settings: Fabry mice, in diet for 4 months starting at 8 months old; GZ 452 60 mg/kg/day, GZ 638 300 mg/kg/day
Description: In the following experiments, mice dosed with GCS inhibitors at either ˜60 mg/kg/day of (S)-Quinuclidin-3-yl(2-(2-(4-fluorophenyl)thiazol-4-yl)propan-2-yl)carbamate (S)-2-hydroxysuccinate salt (hereinafter “GZ 452”) or ˜300 mg/kg/day of (1R,2R)-Octanoic acid[2-(2′,3′-dihydro-benzo[1,4] dioxin-6′-yl)-2-hydroxy-1-pyrrolidin-1-ylmethyl-ethyl]-amide-L-tartaric acid salt (hereinafter “GZ 638”) as a component of the pelleted food diet provided ad libitum. Lipid analysis was by ESI/MS as described in Marshall et al., PLoS ONE 5:e15033 (2010). As discussed in further detail below, treatment started when the mice were 3, 8 or 12 months of age to test the efficacy at different disease severities. Blood and urine was collected monthly and periodic tissue harvests provided materials to evaluate efficacy of the therapy (Gb3 and lyso-Gb3 levels). […] As further discussed below, the efficacy of SMT was affected by the age of the mice at the start of treatment. Generally, the older the mouse, the higher the levels of Gb3 stored and thus a longer period of treatment was required in order to affect similar therapeutic benefit (see FIG. 4). The experiments and results are described further below.
In this experiment, Fabry mice were treated with GCS inhibitors in their diet for 4 months starting at 8 months old. […] Age-matched wild-type levels (WT) are also shown. […]

Fabry mice [2] = assay: Thermal nociceptive response (55° C. hotplate) in Fabry mice; type: in vivo, mouse; settings: 10 month old Fabry mice after 7 months of treatment
Description: Three month old Fabry mice were treated with GZ 452 in their diet (SRT), αgal once every 2 months (ERT), or a combination of the 2 treatments (E+S), as described above. […]

Fabry mice [3] = assay: Combination therapy (ERT + SRT) in Fabry mouse model: plasma and urine Gb3 and lyso-Gb3; type: in vivo; settings: Fabry mice treated 2 months from 3 months of age; ERT 1 mg/kg iv every 2 months; SRT GZ 452 ~60 mg/kg/day in diet
Source text: Fabry mice were used to test the in vivo efficacy of combining enzyme replacement therapy with small molecule therapy in a concurrent treatment format. The study was designed to evaluate whether substrate inhibition (i.e. “substrate reduction therapy”) using the GZ 452 compound could reduce re-accumulation of the storage material Gb3 and lyso-Gb3. The study protocol called for three distinct treatment groups of 3 month old male Fabry mice (FIG. 6A). The first group received intravenous injections of alpha-galactosidase A enzyme (ERT) at 1 mg/kg to reduce Gb3 levels and was repeated every 2 months. The second group received the same enzyme injections as group 1, but also were dosed with GZ 452 at ˜60 mg/kg/day as a component of the pelleted diet. The third group received only the daily dosing of GZ 452 in their diet. A fourth group received no treatment to serve as vehicle controls and a fifth group of wild-type animals provided ‘normal’ Gb3 and lyso-Gb3 values. Monthly urine and blood collections and three monthly tissue harvests provide materials to evaluate relative efficacy of the therapies (FIG. 6A).
After 2 months (mice were 5 months old), plasma (FIG. 6B, panels A and C) and urine (FIG. 6B, panels B & D) were analyzed for Gb3 (FIG. 6B, panels A and B) and lyso-Gb3 (FIG. 6B, panels C and D). […] SMT therapy alone or in combination with ERT was also capable of affecting (reducing accumulation) of lyso-Gb3.

K14 mice = settings: neonatal (P1-P3) intracerebroventricular injections, previous experiments (Cabrera-Salazar et al. 2010); cited from earlier work

(1R,2R)-Octanoic acid[2-(2′,3′-dihydro-benzo[1,4] dioxin-6′-yl)-2-hydroxy-1-pyrrolidin-1-ylmethyl-ethyl]-amide-L-tartaric acid salt [GZ 638, reference compound]
Gb3 in visceral tissue (kidney, heart) relative to the starting levels (Fabry mice [1]): effective at inhibiting further accumulation of tissue Gb3

B1: ERT: alpha-galactosidase A enzyme (ERT), intravenous injections at 1 mg/kg every 2 months (protein, UniProt P06280 32-429, looked up)
Alpha-galactosidase A: LDNGLARTPTMGWLHWERFMCNLDCQEEPDSCISEKLFMEMAELMVSEGWKDAGYEYLCIDDCWMAPQRDSEGRLQADPQRFPHGIRQLANYVHSKGLKLGIYADVGNKTCAGFPGSFGYYDIDAQTFADWGVDLLKFDGCYCDSLENLADGYKHMSLALNRTGRSIVYSCEWPLYMWPFQKPNYTEIRQYCNHWRNFADIDDSWKSIKSILDWTSFNQERIVDVAGPGGWNDPDMLVIGNFGLSWNQQVTQMALWAIMAAPLFMSNDLRHISPQAKALLQDKDVIAINQDPLGKQGYQLRQGDNFEVWERPLSGLAWAVAMINRQEIGGPRSYTIAVASLGKGVACNPACFITQLLPVKRKLGFYEWTSRLRSHINPTGTVLLQLENTMQMSLKDLL
thermal nociceptive response time (latency) vs untreated (Fabry mice [2]): not significantly different to the untreated group | plasma Gb3 level (Fabry mice [3]): to a greater extent than SMT; also recorded: reduced | plasma lyso-Gb3 level (Fabry mice [3]): reduced | urine Gb3 level (Fabry mice [3]): unaffected

B2: GC: Recombinant human glucocerebrosidase (rhGC), reformulated for ICV administration (protein, UniProt P04062 40-536, looked up)
Lysosomal acid …: ARPCIPKSFGYSSVVCVCNATYCDSFDPPTFPALGTFSRYESTRSGRRMELSMGPIQANHTGTGLLLTLQPEQKFQKVKGFGGAMTDAAALNILALSPPAQNLLLKSYFSEEGIGYNIIRVPMASCDFSIRTYTYADTPDDFQLHNFSLPEEDTKLKIPLIHRALQLAQRPVSLLASPWTSPTWLKTNGAVNGKGSLKGQPGDIYHQTWARYFVKFLDAYAEHKLQFWAVTAENEPSAGLLSGYPFQCLGFTPEHQRDFIARDLGPTLANSTHHNVRLLMLDDQRLLLPHWAKVVLTDPEAAKYVHGIAVHWYLDFLAPAKATLGETHRLFPNTMLFASEACVGSKFWEQSVRLGSWDRGMQYSHSIITNLLYHVVGWTDWNLALNPEGGPNWVRNFVDSPIIVDITKDTFYKQPMFYHLGHFSKFIPEGSQRVGLVASQKNDLDAVALMHPDGSAVVVVLNRSSKDVPLTIKDPAVGFLETISPGYSIHTYLWRRQ
median survival (K14 mice): 23 days
